# Assay results reported in PMC5289526, “Crystal Structure and Catalytic Mechanism of CouO, a Versatile C-Methyltransferase from Streptomyces rishiriensis” (PLoS ONE, 2017).
# Biological target: the molecule itself
# Experiment: SEC; last step of purification; HiLoad 16/60 Superdex 200 pg, 1 ml/min, Hepes pH 7, 100mM NaCl; calibrated with Bio-Rad gel filtration standard
protein,measurement,value
"CouO, C-methyltransferase from Streptomyces rishiriensis (enzyme, CouO, SAM-dependent C-methyltransferase of coumermycin A1 biosynthesis, Streptomyces rishiriensis; expected MW 26 kDa; also called CouO-WT; source: purified (last step size exclusion chromatography)) MKIEPITGSEAEAFHRMGSRAFERYNEFVDLLVGAGIADGQTVVDLCCGSGELEIILTSRFPSLNLVGVDLSEDMVRIARDYAAEQGKELEFRHGDAQSPAGMEDLLGKADLVVSRHAFHRLTRLPAGFDTMLRLVKPGGAILNVSFLHLSDFDEPGFRTWVRFLKERPWDAEMQVAWALAHYYAPRLQDYRDALAQAADETPVSEQRIWVDDQGYGVATVKCFARRAAA",stoichiometry N,2
